Measurements as given in PMC2063623.

Target: pCMV-BD-DLC-1 (human) (UniProt Q96QB1)
Assay: two-hybrid

Chain of UniProt Q96QB1 (Q96QB1 whole entry): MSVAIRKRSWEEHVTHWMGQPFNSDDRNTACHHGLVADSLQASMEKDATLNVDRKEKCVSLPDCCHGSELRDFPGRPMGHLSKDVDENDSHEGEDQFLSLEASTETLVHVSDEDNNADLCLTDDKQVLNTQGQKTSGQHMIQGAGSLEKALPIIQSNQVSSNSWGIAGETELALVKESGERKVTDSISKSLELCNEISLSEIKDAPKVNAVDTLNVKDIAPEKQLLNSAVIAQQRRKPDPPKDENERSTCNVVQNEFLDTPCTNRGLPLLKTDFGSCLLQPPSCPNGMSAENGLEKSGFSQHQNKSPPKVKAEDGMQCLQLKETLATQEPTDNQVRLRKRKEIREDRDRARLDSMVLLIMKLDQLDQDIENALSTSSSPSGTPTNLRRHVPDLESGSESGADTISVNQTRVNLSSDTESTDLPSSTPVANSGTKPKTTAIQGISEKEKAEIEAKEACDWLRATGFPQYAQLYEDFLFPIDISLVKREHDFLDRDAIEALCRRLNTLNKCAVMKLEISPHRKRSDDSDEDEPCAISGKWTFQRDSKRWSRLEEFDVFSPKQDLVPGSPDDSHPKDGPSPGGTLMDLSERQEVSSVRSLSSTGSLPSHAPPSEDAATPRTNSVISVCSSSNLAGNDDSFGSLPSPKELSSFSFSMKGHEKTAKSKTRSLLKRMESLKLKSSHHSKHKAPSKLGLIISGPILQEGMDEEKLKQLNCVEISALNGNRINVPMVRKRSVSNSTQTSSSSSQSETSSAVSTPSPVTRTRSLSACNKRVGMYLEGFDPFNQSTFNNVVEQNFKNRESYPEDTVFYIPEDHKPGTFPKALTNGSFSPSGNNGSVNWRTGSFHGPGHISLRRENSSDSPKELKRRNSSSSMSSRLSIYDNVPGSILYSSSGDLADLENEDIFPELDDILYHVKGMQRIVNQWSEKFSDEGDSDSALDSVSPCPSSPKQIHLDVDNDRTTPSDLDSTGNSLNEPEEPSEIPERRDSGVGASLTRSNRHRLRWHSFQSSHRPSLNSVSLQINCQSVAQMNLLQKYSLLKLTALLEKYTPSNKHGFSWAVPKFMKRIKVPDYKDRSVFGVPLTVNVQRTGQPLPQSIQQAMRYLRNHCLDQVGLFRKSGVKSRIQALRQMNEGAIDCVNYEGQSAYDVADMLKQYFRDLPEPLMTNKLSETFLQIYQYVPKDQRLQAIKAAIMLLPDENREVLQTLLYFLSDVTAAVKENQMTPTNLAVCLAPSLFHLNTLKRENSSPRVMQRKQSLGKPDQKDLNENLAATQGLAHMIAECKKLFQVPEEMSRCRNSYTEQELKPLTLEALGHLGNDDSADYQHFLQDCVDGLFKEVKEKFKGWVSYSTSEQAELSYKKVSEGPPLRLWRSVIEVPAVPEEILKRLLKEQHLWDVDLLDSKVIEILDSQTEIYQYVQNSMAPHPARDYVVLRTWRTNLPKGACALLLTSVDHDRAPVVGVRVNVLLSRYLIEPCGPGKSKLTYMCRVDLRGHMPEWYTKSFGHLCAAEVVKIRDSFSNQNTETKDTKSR

pCMV-AD-cten (from UniProt Q8IZW8 1-715) (natural protein)
fold enhancement of luciferase activity: 4 fold
